Target: the molecule itself
Test: SEC; gel filtration (Superdex 10/300 GL) after incubation at given temperature for 60 min in 100 mM potassium phosphate pH 7.5, 2 mM β-mercaptoethanol, 0.04% DDM

B1: L-carnitine/γ-butyrobetaine antiporter CaiT of Escherichia coli, wild-type (natural protein)
chain: not shown
notes: CaiT, L-carnitine/γ-butyrobetaine antiporter of E. coli; the caiT gene cloned into pET21a; also called CaiT(WT); WT; source: E. coli JW0039 with pET21a/caiT, purified (Ni-NTA), in detergent (DDM)
  binding result: binds

From paper PMC6406002, “Comparison of the functional properties of trimeric and monomeric CaiT of Escherichia coli” (Scientific Reports, 2019)
